Measured values: patent publication US11466067B2 (priority 2019, dated 2022)

Experiments:
DSS-induced colitis = type: in vivo, C57BL6/J mice
STAT3 phosphorylation = experiment: pSTAT3 and hIL-10 immunofluorescence in intestine 40 min post oral gavage; type: in vivo, rat
Description: This observation is consistent with findings in mice that intestinal epithelial cells can express IL-10 receptors at their apical surface under certain conditions associated with development and maintenance of barrier function. […] In order to quantify how test articles affected intestinal IL-10 signal transduction pathways, image analysis was performed: high-throughput image batches were collected, segmented by epithelial versus Lamina propria localization, and then by cellular features.

[1] = tested on: IFNγ, IL-1β, IL-2, IL-6, IL-8, TNFα; experiment: Single oral capsule dose in NHP: plasma proinflammatory cytokines; type: in vivo, Macaca fascicularis
Description: The panel of cytokines (IFNγ, IL-1β, IL-2, IL-6, and IL-8) was evaluated using a multiplex kit available from MSD. The assays in this panel were sandwich immunoassays. The MSD plate came precoated with capture antibodies on independent and pre-defined spots, and samples were quantitated against an 8-point standard curve prepared using a mixture of the cytokines (Proinflammatory Panel 1 (human) Calibrator Blend) from MSD. The standards included 0 pg/mL and these concentration ranges: IFNγ (0.37-1500 pg/mL), IL-1β (0.14-589 pg/mL), IL-2 (0.36-1490 pg/mL), IL-6 (0.18-721 pg/mL) and IL-8 (0.14-553 pg/mL).
The MSD plate (pre-coated with capture antibodies) was washed 3 times with PBST before use. Standards were prepared in Diluent 2 (MSD Cat No R51BB) and test samples diluted 2 fold in Diluent 2. Standards and diluted samples were added to the assay plate, and the plate incubated for 2 hours at room temperature with shaking. The plate was washed 3 times with PBST, and a mixture of 1×SULFO TAG detection antibodies added to the plate. The plate was incubated for 2 hours at room temperature with shaking. Following a wash step, 2×MSD Read buffer was added to the wells of the plate, and the plate read using the MSD Sector Imager 600 plate reader. The lower limit of detection of each analyte was defined as 2.5 standard deviation above background.
The purpose of the TNFα immunoassay was to quantify NHP TNFα concentration in plasma. The antibody pair in this immunoassay reacted with both human and NHP TNFα. Samples were quantitated using an 8-point standard curve prepared from a human TNFα calibrator that ranges in concentration from 5.6-4052 pg/mL and includes 0 pg/mL.
The biotinylated anti-NHP TNFα capture antibody was added to a MSD Small Spot Streptavidin plate and incubated for an hour at RT with shaking. Controls were prepared in pooled plasma, standards in Diluent 43 (MSD Cat No R50AG), and test samples were diluted 2 fold in Diluent 43. […] Following a wash step, 2×MSD Read buffer was added to the wells of the plate, and the plate read using the MSD Sector Imager 600 plate reader. […]

enterocytes = experiment: Vesicular trafficking co-localization (Rab7, Rab11, LMAN1, LAMP1) in jejunum; type: in vivo, rat
Text: The timing of LMAN1 redistribution to the basal compartment coincides with the presence of hIL-10 being ultimately detected in non-polarized cells within the Lamina propria where it was not associated with LMAN1.
Ultimately, the delivery construct is delivered to lysosome-like structures within a large fraction of cells within the Lamina propria, an outcome that would limit its systemic distribution following A-B transcytosis.

[2] = Intraluminal injection in T-cell transfer colitis model, rhIL-10 ELISA; type: in vivo, BALB/c and SCID mice
Description: This study was conducted to examine the potential for the carrier protein to transport rhIL-10 from the intestinal lumen into the submucosal region in inflamed intestinal tissue. The T lymphocyte (T cell) transfer model was used as it is a well-established model of induced chronic colitis in mice and presents many of the essential immunological hallmarks observed in IBD patients. Nine BALB/c mice and twelve SCID mice, including nine with the colitis-like model of inflammation, were dosed with 20 μl of test article via intraluminal injection into the distal ileum and the proximal, middle and distal colon.
PBS vehicle was administered to healthy BALB/c mice and both healthy and induced colitis SCID mice (n=3/group). In each group, two mice were terminated 10 minutes after intraluminal injections, and one was terminated 40 minutes after intraluminal injections. Intestinal tissue and serum were collected. Collected tissue was fixed, embedded, sectioned and H&E stained for histological assessment of inflammatory status. ELISA analysis to measure rhIL 10 was performed on lysates prepared from intestinal tissue and serum (FIGS. 106A-106D).

circulating cytokines = experiment: Plasma cytokines by MSD 10-plex, oxazolone dose response; set-up: species or system mice; conditions: mouse, in vivo
Text: Plasma cytokines were quantified using the V-plex Proinflammatory Panel 1 Mouse Kit. Plasma IL-1Ra was quantitated by sandwich immunoassay using an antibody pair from the Mouse IL-1Ra/IL-1F3 DuoSet ELISA (R&D Systems #DY480), Streptavidin SULFO-TAG Labeled (MSD #R32AD-1), Multi-Array 96 Plate Pack, SECTOR Plate MSD #L15XA-3 and Read Buffer T (4×) (MSD #R92TC-2). Samples were read on the QuickPlex SQ 120 plate reader (Meso Scale Discovery, Rockville, Md.).

B1: IL-10 delivery construct: recombinant homodimeric fusion protein: N-terminal methionine, cholix386 domain, polyGlySer spacer, recombinant human IL-10 (protein)
chain: MVEEALNIFDECRSPCSLTPEPGKPIQSKLSIPSDVVLDEGVLYYSMTINDEQNDIKDEDKGESIITIGEFATVRATRHYVNQDAPFGVIHLDITTENGTKTYSYNRKEGEFAINWLVPIGEDSPASIKISVDELDQQRNIIEVPKLYSIDLDNQTLEQWKTQGNVSFSVTRPEHNIAISWPSVSYKAAQKEGSRHKRWAHWHTGLALCWLVPMDAIYNYITQQNCTLGDNWFGGSYETVAGTPKVITVKQGIEQKPVEQRIHFSKGNAMSALAAHRVCGVPLETLARSRKPRDLTDDLSCAYQAQNIVSLFVATRILFSHLDSVFTLNLDEQEPEVAERLSDLRRINENNPGMVTQVLTVARQIYNDYVTHHPGLTPEQTSAGAQAGGGGSGGGGSGGGGSPGQGTQSENSCTHFPGNLPNMLRDLRDAFSRVKTFFQMKDQLDNLLLKESLLEDFKGYLGCQALSEMIQFYLEEVMPQAENQDPDIKAHVNSLGENLKTLRLRLRRCHRFLPCENKSKAVEQVKNAFNKLQEKGIYKAMSEFDIFINYIEAYMTMKIRN
modifications: homodimer
With B1 the “edema width, mid colon” value (DSS-induced colitis; 30 mg/kg) was “significantly improved”, the “hyperplasia, mid colon” value (DSS-induced colitis; 30 mg/kg) was “significantly improved” and the “mucosal thickness, mid colon” value (DSS-induced colitis; 30 mg/kg) was “significantly improved”. For the same molecule, the “colon length vs vehicle” value (DSS-induced colitis; 10 and 30 mg/kg, p<0.05) was “Significant improvement”, the “DSS-induced body weight loss” value (DSS-induced colitis; construct 30 mg/kg, CsA 75 mg/kg, oral q.d.) was “significantly reduced DSS-induced weight loss” and the “hIL-10 and pSTAT3 in intestinal tissue” value (STAT3 phosphorylation) was “extensive amounts of hIL-10 and a large number of cells that were positive for pSTAT3 within the Lamina propria”. For the same molecule, the “plasma IFNγ, IL-1β, IL-2, IL-8, IL-6” value ([1]; 1-82 mg oral capsules) was “not associated with any consistent trends”, the “plasma TNFα” value ([1]; all samples below limit of detection) was “no induction” and the “plasma IL-1Ra and IFN-γ after oral enteric-coated capsules” value ([1]; compared with intravenous administration) was “increased IL-1Ra without significant induction of IFN-γ”. The “co-localization with LAMP1 in polarized enterocytes” value (enterocytes; 1-15 min post ILI) was “Limited LAMP1/delivery construct co-localizations”, the “co-localization with LMAN1” value (enterocytes; 1-15 min post ILI) was “co-localized with redistributing LMAN1” and the “co-localization with LAMP1 in non-polarized cells of Lamina propria” value (enterocytes; 10 min and 15 min post ILI) was “extensive LAMP1/delivery construct co-localizations”. The “co-localization with Rab7+ vesicles” value (enterocytes; enterocytes) was “predominantly in the apical vesicular compartment”, the “co-localization with Rab11+ vesicles” value (enterocytes; enterocytes) was “mostly in the basal vesicular compartment” and the “rhIL-10 in serum of healthy animals” value ([2]; 159 pmoles intraluminal) was “moderately high”. The “rhIL-10 in serum of inflamed animals” value ([2]; 159 pmoles intraluminal) was “minimal amounts”, the “rhIL-10 levels in inflamed tissue vs rhIL-10 alone” value ([2]; 159 pmoles, 10 minutes) was “approximately 10 fold higher” and the “rhIL-10 uptake in normal intestinal tissues vs rhIL-10 alone” value ([2]; 159 pmoles, 10 minutes) was “two- to five-fold higher”. For the same molecule, the “plasma cytokines, MSD 10-plex, vs Vehicle” value (circulating cytokines) was “no significant differences”.
